Laboratory results reported in US20230265151A1, “GIP/GLP1 CO-AGONIST COMPOUNDS” (priority 2020, published 2023).
Residue numbers refer to the chain shown, from its start.

T1: human GIP receptor (human, UniProt P48546 22-466)
T1 construct: whole, on cells; also called hGIPR; human glucose-dependent insulinotropic polypeptide receptor
T1 sequence (looked up): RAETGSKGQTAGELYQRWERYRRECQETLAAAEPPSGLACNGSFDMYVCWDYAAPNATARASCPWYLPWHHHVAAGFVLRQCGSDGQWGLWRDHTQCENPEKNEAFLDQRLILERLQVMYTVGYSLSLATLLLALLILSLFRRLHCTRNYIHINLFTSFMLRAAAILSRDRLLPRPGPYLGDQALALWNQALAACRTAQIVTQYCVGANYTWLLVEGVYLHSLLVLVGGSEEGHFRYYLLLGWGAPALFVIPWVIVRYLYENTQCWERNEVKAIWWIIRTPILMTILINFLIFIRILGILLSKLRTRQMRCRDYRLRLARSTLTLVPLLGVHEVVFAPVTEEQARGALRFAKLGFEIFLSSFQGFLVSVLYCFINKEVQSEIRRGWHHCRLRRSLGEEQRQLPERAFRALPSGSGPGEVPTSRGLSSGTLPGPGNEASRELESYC

B1: Y-Aib-EGT-αMeF(2F)-TSD-4Pal-Aib-I-αMeL-LD-Orn-K((2-[2-(2-Amino-ethoxy)-ethoxy]-acetyl)2-(γ-Glu)-CO-(CH2)10-CH3)AQ-Aib-TFI-(D-Glu)-αMeY-LIK((2-[2-(2-Amino-ethoxy … (peptide)
peptide: YXEGTXTSDXXIXLDXKAQXTFIXXLIKGGPSSGAPPPS
modifications: Aib2, αMeF(2F)6, 4Pal10, Aib11, αMeL13, Orn16, K17(Z1), Aib20, D-Glu24, αMeY25, K28(Z1), C-term NH2; Z1=AEEA2-(γ-Glu)-CO-(CH2)10-CH3
notes: T at position 21
B2: Y-Aib-EGT-αMeF(2F)-TSD-4Pal-Aib-I-αMeL-LD-Orn-K((2-[2-(2-Amino-ethoxy)-ethoxy]-acetyl)3-(γ-Glu)-CO-(CH2)10-CH3)AQ-Aib-K((2-[2-(2-Amino-ethoxy)-ethoxy]-acetyl)3- … (peptide)
peptide: B1 peptide with T21K, K28E
modifications: Aib2, αMeF(2F)6, 4Pal10, Aib11, αMeL13, Orn16, K17(Z1), Aib20, K21(Z1), D-Glu24, αMeY25, C-term NH2; Z1=AEEA3-(γ-Glu)-CO-(CH2)10-CH3
B3: Y-Aib-EGT-αMeF(2F)-TSD-4Pal-Aib-I-αMeL-LD-Orn-K((2-[2-(2-Amino-ethoxy)-ethoxy]-acetyl)2-(γ-Glu)-CO-(CH2)10-CH3)AQ-Aib-K((2-[2-(2-Amino-ethoxy)-ethoxy]-acetyl)2- … (peptide)
peptide: B1 peptide with T21K, K28E
modifications: Aib2, αMeF(2F)6, 4Pal10, Aib11, αMeL13, Orn16, K17(Z1), Aib20, K21(Z1), D-Glu24, αMeY25, C-term NH2; Z1=AEEA2-(γ-Glu)-CO-(CH2)10-CH3
B4: Y-Aib-EGT-αMeF(2F)-TSD-4Pal-Aib-I-αMeL-LD-Orn-IAQ-Aib-EFIK((2-[2-(2-Amino-ethoxy)-ethoxy]-acetyl)2-(γ-Glu)-CO-(CH2)12-CO2H)-αMeY-LIK((2-[2-(2-Amino-ethoxy)-etho … (peptide)
peptide: B1 peptide with K17I, T21E, X24K
modifications: Aib2, αMeF(2F)6, 4Pal10, Aib11, αMeL13, Orn16, Aib20, K24(Z1), αMeY25, K28(Z1), C-term NH2; Z1=AEEA2-(γ-Glu)-CO-(CH2)12-CO2H
B5: Y-Aib-EGT-αMeF(2F)-TSD-4Pal-Aib-I-αMeL-LD-Orn-K((2-[2-(2-Amino-ethoxy)-ethoxy]-acetyl)-(γ-Glu)-CO-(CH2)12-CO2H)AQ-Aib-K((2-[2-(2-Amino-ethoxy)-ethoxy]-acetyl)-( … (peptide)
peptide: B1 peptide with T21K, K28E
modifications: Aib2, αMeF(2F)6, 4Pal10, Aib11, αMeL13, Orn16, K17(Z1), Aib20, K21(Z1), D-Glu24, αMeY25, C-term NH2; Z1=AEEA-(γ-Glu)-CO-(CH2)12-CO2H
B6: Y-Aib-EGT-αMeF(2F)-TSD-4Pal-Aib-I-αMeL-LD-Orn-K((2-[2-(2-Amino-ethoxy)-ethoxy]-acetyl)-(γ-Glu)-(10-(4-carboxyphenoxy)decanoyl))AQ-Aib-K((2-[2-(2-Amino-ethoxy)-e … (peptide)
peptide: B1 peptide with T21K, K28E
modifications: Aib2, αMeF(2F)6, 4Pal10, Aib11, αMeL13, Orn16, K17(Z1), Aib20, K21(Z1), D-Glu24, αMeY25, C-term NH2; Z1=AEEA-(γ-Glu)-(10-(4-carboxyphenoxy)decanoyl)
B7: Y-Aib-EGT-aMeF(2F)-TSD-4Pal-Aib-I-aMeL-LD-Orn-K((2-[2-(2-Amino-ethoxy)-ethoxy]-acetyl)2-(γ-Glu)-CO-(CH2)10-CH3)AQ-Aib-GFIe-aMeY-LIK((2-[2-(2-Amino-ethoxy)-ethox … (peptide)
peptide: B1 peptide with T21G
modifications: Aib2, αMeF(2F)6, 4Pal10, Aib11, αMeL13, Orn16, K17(Z1), Aib20, D-Glu24 (printed e), αMeY25, K28(Z1), C-term NH2; Z1=AEEA2-(γ-Glu)-CO-(CH2)10-CH3
notes: G at position 21
B8: Y-Aib-EGT-αMeF(2F)-TSD-4Pal-Aib-I-αMeL-LD-Orn-IAQ-Aib-EFIK((2-[2-(2-Amino-ethoxy)-ethoxy]-acetyl)2-(γ-Glu)-(10-(4-carboxyphenoxy)decanoyl))-αMeY-LIK((2-[2-(2-Am … (peptide)
peptide: B1 peptide with K17I, T21E, X24K
modifications: Aib2, αMeF(2F)6, 4Pal10, Aib11, αMeL13, Orn16, Aib20, K24(Z1), αMeY25, K28(Z1), C-term NH2; Z1=AEEA2-(γ-Glu)-(10-(4-carboxyphenoxy)decanoyl)
B9: Y-Aib-EGT-αMeF(2F)-TSD-4Pal-αMeS-I-αMeL-LD-Orn-IAQ-Aib-EFIK((2-[2-(2-Amino-ethoxy)-ethoxy]-acetyl)2-(γ-Glu)-CO-(CH2)12-CO2H)-αMeY-LIK((2-[2-(2-Amino-ethoxy)-eth … (peptide)
peptide: B1 peptide with K17I, T21E, X24K
modifications: Aib2, αMeF(2F)6, 4Pal10, αMeS11, αMeL13, Orn16, Aib20, K24(Z1), αMeY25, K28(Z1), C-term NH2; Z1=AEEA2-(γ-Glu)-CO-(CH2)12-CO2H

target: T1, human GIP receptor; assay: SPA competition vs [125I]-GIP, hGIPR membranes

B1 and B2 are within 1.5-fold of each other in Ki: 0.0166 nM for the first, 0.0218 nM for the second.

Compared with B3, B4 is 7-fold higher in Ki: 0.0162 nM for the first, 0.114 nM for the second.

Compared with B5, B6 is 1.7-fold lower in Ki: 0.0782 nM for the first, 0.046 nM for the second.

First: B7
Second: B8
The Ki of the first is 2.2-fold lower: 0.0197 nM for the first, 0.0432 nM for the second. The first binds more tightly here.

With B9 the Ki was 0.0491 nM.

target: T2, human glucagon receptor (human, UniProt P47871 26-477); assay: SPA competition vs [125I]-Gcg, hGcgR membranes
T2 construct: whole, on cells; also called hGCGR; hGcgR
T2 sequence (P47871 26-477): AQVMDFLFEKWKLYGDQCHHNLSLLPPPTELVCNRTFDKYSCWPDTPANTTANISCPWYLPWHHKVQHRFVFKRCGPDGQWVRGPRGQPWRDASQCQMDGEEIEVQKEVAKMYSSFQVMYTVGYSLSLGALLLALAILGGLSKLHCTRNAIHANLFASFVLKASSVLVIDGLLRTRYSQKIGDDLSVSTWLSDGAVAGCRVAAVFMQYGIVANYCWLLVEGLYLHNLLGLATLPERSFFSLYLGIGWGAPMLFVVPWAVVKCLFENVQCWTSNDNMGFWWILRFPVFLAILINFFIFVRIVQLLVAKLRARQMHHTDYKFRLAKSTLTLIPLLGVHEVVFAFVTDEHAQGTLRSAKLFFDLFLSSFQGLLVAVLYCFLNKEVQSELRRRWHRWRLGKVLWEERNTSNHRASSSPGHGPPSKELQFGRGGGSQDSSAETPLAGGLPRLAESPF
Procedure: The binding buffer contains 25 mM 4-(2-hydroxyethyl)-1-piperazineethanesulfonic acid (HEPES), pH 7.4, 2.5 mM CaCl₂, 1 mM MgCh, 0.1% (w/v) bacitracin (Research Products), 0.003% (w/v) Polyoxyethylenesorbitan monolaurate (TWEEN®-20), and Roche Complete™ Protease Inhibitors without EDTA. […] Plates are sealed and mixed on a plate shaker (setting 6) for 1 minute and read with a PerkinElmer Trilux MicroBeta® scintillation counter after 12 hours of incubation/settling time at room temperature.
Data are analyzed using four-parameter (curve maximum, curve minimum, IC₅₀, Hill slope) nonlinear regression routines (Genedata Screener, version 12.0.4, Genedata AG, Basal, Switzerland). […] Values for Kᵢ are reported as the geometric mean, with error expressed as the standard error of the mean (SEM) and n is equal to the number of independent replicates (determined in assays performed on different days).

Going from B1 to B2, the Ki falls from 60.6 nM to 12.2 nM (5-fold).

Going from B3 to B4, the Ki rises from 2.91 nM to 135 nM (46-fold).

Compared with B5, B6 is 1.9-fold lower in Ki: 230 nM for the first, 118 nM for the second.

Compared with B7, B8 is 3-fold lower in Ki: 135 nM for the first, 44.6 nM for the second.

With B9 the Ki was 328 nM.

target: T3, human GLP-1 receptor (human, UniProt P43220 24-463); assay: SPA competition vs [125I]-GLP-1, hGLP-1R membranes
T3 construct: whole, on cells; also called hGLP-1R; human glucagon-like peptide-1 receptor
Procedure, shortened: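 Competition binding in 25 mM HEPES pH 7.4, 2.5 mM CaCl₂, 1 mM MgCl₂, 0.1% bacitracin, 0.003% TWEEN-20, EDTA-free protease inhibitors. IC₅₀ from four-parameter nonlinear fit; Kᵢ given as geometric mean ± SEM, n = independent replicates on different days.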

B1 and B2 are within 1.5-fold of each other in Ki: 0.265 nM for the first, 0.194 nM for the second.

Compared with B3, B4 is 4-fold higher in Ki: 0.234 nM for the first, 0.939 nM for the second. The first binds more tightly here.

First: B5
Second: B6
The Ki of the first is 2.7-fold higher: 1.85 nM for the first, 0.673 nM for the second. The second binds more tightly here.

First: B7
Second: B8
The Ki of the first is 3-fold lower: 0.188 nM for the first, 0.557 nM for the second. The first binds more tightly here.

Binder B9 has a Ki of 0.863 nM.
